This note sets out measurements from IntAct's records for PubMed 21135237.

The labels stand for the following.
B1: Glutamate receptor 1 (Rattus norvegicus (Rat)), P19490 (parent)
chain: MPYIFAFFCTGFLGAVVGANFPNNIQIGGLFPNQQSQEHAAFRFALSQLTEPPKLLPQIDIVNISDSFEMTYRFCSQFSKGVYAIFGFYERRTVNMLTSFCGALHVCFITPSFPVDTSNQFVLQLRPELQEALISIIDHYKWQTFVYIYDADRGLSVLQRVLDTAAEKNWQVTAVNILTTTEEGYRMLFQDLEKKKERLVVVDCESERLNAILGQIVKLEKNGIGYHYILANLGFMDIDLNKFKESGANVTGFQLVNYTDTIPARIMQQWRTSDSRDHTRVDWKRPKYTSALTYDGVKVMAEAFQSLRRQRIDISRRGNAGDCLANPAVPWGQGIDIQRALQQVRFEGLTGNVQFNEKGRRTNYTLHVIEMKHDGIRKIGYWNEDDKFVPAATDAQAGGDNSSVQNRTYIVTTILEDPYVMLKKNANQFEGNDRYEGYCVELAAEIAKHVGYSYRLEIVSDGKYGARDPDTKAWNGMVGELVYGRADVAVAPLTITLVREEVIDFSKPFMSLGISIMIKKPQKSKPGVFSFLDPLAYEIWMCIVFAYIGVSVVLFLVSRFSPYEWHSEEFEEGRDQTTSDQSNEFGIFNSLWFSLGAFMQQGCDISPRSLSGRIVGGVWWFFTLIIISSYTANLAAFLTVERMVSPIESAEDLAKQTEIAYGTLEAGSTKEFFRRSKIAVFEKMWTYMKSAEPSVFVRTTEEGMIRVRKSKGKYAYLLESTMNEYIEQRKPCDTMKVGGNLDSKGYGIATPKGSALRNPVNLAVLKLNEQGLLDKLKNKWWYDKGECGSGGGDSKDKTSALSLSNVAGVFYILIGGLGLAMLVALIEFCYKSRSESKRMKGFCLIPQQSINEAIRTSTLPRNSGAGASGGGGSGENGRVVSQDFPKSMQSIPCMSHSSGMPLGATGL

Variants of B1 are the subject of the assay. The conditions noted are these: with kcc2a_rat Camk2a.
Consider S567A, for which the “effect of a mutation on the interaction” value is given as “disrupting interaction”.
